# B1: Serine/threonine-protein kinase PAK 5 (Homo sapiens), Q9P286 (parent)
# chain: MFGKKKKKIEISGPSNFEHRVHTGFDPQEQKFTGLPQQWHSLLADTANRPKPMVDPSCITPIQLAPMKTIVRGNKPCKETSINGLLEDFDNISVTRSNSLRKESPPTPDQGASSHGPGHAEENGFITFSQYSSESDTTADYTTEKYREKSLYGDDLDPYYRGSHAAKQNGHVMKMKHGEAYYSEVKPLKSDFARFSADYHSHLDSLSKPSEYSDLKWEYQRASSSSPLDYSFQFTPSRTAGTSGCSKESLAYSESEWGPSLDDYDRRPKSSYLNQTSPQPTMRQRSRSGSGLQEPMMPFGASAFKTHPQGHSYNSYTYPRLSEPTMCIPKVDYDRAQMVLSPPLSGSDTYPRGPAKLPQSQSKSGYSSSSHQYPSGYHKATLYHHPSLQSSSQYISTASYLSSLSLSSSTYPPPSWGSSSDQQPSRVSHEQFRAALQLVVSPGDPREYLANFIKIGEGSTGIVCIATEKHTGKQVAVKKMDLRKQQRRELLFNEVVIMRDYHHDNVVDMYSSYLVGDELWVVMEFLEGGALTDIVTHTRMNEEQIATVCLSVLRALSYLHNQGVIHRDIKSDSILLTSDGRIKLSDFGFCAQVSKEVPKRKSLVGTPYWMAPEVISRLPYGTEVDIWSLGIMVIEMIDGEPPYFNEPPLQAMRRIRDSLPPRVKDLHKVSSVLRGFLDLMLVREPSQRATAQELLGHPFLKLAGPPSCIVPLMRQYRHH
# partner: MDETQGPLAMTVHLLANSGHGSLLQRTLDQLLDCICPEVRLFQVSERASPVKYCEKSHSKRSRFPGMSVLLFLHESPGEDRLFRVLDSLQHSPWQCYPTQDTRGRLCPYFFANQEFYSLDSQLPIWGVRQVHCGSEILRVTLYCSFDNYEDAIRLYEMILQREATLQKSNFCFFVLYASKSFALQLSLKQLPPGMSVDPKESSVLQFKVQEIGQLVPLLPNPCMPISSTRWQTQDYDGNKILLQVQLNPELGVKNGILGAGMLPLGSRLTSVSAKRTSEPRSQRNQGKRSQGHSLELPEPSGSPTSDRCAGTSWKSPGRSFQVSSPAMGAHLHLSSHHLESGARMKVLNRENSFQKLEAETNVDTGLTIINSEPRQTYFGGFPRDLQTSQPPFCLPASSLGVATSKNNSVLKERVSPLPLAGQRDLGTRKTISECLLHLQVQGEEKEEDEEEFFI
# B2: "Peptide-N(4)-(N-acetyl-beta-glucosaminyl)asparagine amidase" (Homo sapiens), Q96IV0 (parent)
# chain: MAAAALGSSSGSASPAVAELCQNTPETFLEASKLLLTYADNILRNPNDEKYRSIRIGNTAFSTRLLPVRGAVECLFEMGFEEGETHLIFPKKASVEQLQKIRDLIAIERSSRLDGSNKSHKVKSSQQPAASTQLPTTPSSNPSGLNQHTRNRQGQSSDPPSASTVAADSAILEVLQSNIQHVLVYENPALQEKALACIPVQELKRKSQEKLSRARKLDKGINISDEDFLLLELLHWFKEEFFHWVNNVLCSKCGGQTRSRDRSLLPSDDELKWGAKEVEDHYCDACQFSNRFPRYNNPEKLLETRCGRCGEWANCFTLCCRAVGFEARYVWDYTDHVWTEVYSPSQQRWLHCDACEDVCDKPLLYEIGWGKKLSYVIAFSKDEVVDVTWRYSCKHEEVIARRTKVKEALLRDTINGLNKQRQLFLSENRRKELLQRIIVELVEFISPKTPKPGELGGRISGSVAWRVARGEMGLQRKETLFIPCENEKISKQLHLCYNIVKDRYVRVSNNNQTISGWENGVWKMESIFRKVETDWHMVYLARKEGSSFAYISWKFECGSVGLKVDSISIRTSSQTFQTGTVEWKLRSDTAQVELTGDNSLHSYADFSGATEVILEAELSRGDGDVAWQHTQLFRQSLNDHEENCLEIIIKFSDL
# partner: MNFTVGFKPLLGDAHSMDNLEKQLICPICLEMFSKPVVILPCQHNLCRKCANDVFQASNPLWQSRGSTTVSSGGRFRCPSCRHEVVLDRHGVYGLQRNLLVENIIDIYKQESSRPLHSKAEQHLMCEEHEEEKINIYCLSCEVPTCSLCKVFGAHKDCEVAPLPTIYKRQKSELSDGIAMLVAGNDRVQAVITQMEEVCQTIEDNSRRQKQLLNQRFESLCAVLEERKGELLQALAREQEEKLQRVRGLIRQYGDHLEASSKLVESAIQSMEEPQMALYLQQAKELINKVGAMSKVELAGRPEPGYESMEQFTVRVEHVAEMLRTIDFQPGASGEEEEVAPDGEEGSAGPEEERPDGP
# B3: Protein LDOC1 (Homo sapiens), O95751 (parent)
# chain: MVDELVLLLHALLMRHRALSIENSQLMEQLRLLVCERASLLRQVRPPSCPVPFPETFNGESSRLPEFIVQTASYMLVNENRFCNDAMKVAFLISLLTGEAEEWVVPYIEMDSPILGDYRAFLDEMKQCFGWDDDEDDDDEEEEDDY
# partner: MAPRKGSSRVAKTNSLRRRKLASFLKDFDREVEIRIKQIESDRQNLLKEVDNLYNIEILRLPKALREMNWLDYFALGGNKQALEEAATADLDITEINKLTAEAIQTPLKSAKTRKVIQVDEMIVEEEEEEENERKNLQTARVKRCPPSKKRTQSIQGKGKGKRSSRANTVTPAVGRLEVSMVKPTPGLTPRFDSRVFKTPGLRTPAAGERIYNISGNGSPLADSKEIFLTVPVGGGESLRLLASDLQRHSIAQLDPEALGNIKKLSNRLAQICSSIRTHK
# B4: Dynein light chain 2, cytoplasmic (Homo sapiens), Q96FJ2 (parent)
# chain: MSDRKAVIKNADMSEDMQQDAVDCATQAMEKYNIEKDIAAYIKKEFDKKYNPTWHCIVGRNFGSYVTHETKHFIYFYLGQVAILLFKSG
# partner: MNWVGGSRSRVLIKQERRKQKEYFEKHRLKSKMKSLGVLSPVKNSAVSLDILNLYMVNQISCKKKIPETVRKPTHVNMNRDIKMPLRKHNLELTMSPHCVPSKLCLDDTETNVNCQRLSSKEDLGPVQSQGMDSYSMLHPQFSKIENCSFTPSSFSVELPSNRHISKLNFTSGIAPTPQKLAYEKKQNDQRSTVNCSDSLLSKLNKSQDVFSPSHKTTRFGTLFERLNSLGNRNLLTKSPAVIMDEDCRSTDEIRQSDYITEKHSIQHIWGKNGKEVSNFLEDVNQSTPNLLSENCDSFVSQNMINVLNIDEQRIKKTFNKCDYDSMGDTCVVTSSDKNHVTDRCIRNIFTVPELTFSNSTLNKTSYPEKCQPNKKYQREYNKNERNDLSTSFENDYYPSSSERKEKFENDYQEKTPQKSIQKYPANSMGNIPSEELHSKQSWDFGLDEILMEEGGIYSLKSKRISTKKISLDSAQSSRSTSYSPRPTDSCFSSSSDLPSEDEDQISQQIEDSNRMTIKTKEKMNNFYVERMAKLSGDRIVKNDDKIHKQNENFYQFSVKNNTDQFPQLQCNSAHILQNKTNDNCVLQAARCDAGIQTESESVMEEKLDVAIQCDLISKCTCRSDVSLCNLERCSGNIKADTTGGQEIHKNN
# Variants of: B1
# Conditions: with FAM124B
row,Variant,effect of a mutation on the interaction
1,R335P,with no effect

# Variants of: B2
# Conditions: with tri54_human TRIM54, Q9BYV2
row,Variant,effect of a mutation on the interaction
1,F292L,with no effect
2,V184F,with no effect

# Variants of: B3
# Conditions: with borea_human CDCA8, Q53HL2
row,Variant,effect of a mutation on the interaction
1,L12H,disrupting interaction strength

# Variants of: B4
# Conditions: with rdic1_human REDIC1, Q86WS4
row,Variant,effect of a mutation on the interaction
1,E30D,with no effect

# Reference: IntAct's records for PubMed 31515488
